Where a chain is given by its changes, count along the chain named. Where two headings read alike, the source gives them in different places. Values belong to the binder of their own block, whether it stands above or below them.
Experiments:
[1] = molecular target: T1, VSIG3 His-fusion (human, UniProt Q5DX21 23-241, biotinylated (in the co-immunoprecipitation of FIG. 2)); test: SPR (Biacore), antibody captured on protein A/G/L, single-cycle kinetics
T1 chain: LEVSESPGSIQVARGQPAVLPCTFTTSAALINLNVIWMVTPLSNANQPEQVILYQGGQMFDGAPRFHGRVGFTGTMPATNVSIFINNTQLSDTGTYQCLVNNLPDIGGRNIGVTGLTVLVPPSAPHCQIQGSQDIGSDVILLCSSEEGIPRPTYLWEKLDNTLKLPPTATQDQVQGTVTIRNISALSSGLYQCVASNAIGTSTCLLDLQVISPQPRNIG

[2] = molecular target: T2, Recombinant human VSIG3 Fc Chimera; test: SPR (Biacore, single-cycle kinetics)
T2 chain: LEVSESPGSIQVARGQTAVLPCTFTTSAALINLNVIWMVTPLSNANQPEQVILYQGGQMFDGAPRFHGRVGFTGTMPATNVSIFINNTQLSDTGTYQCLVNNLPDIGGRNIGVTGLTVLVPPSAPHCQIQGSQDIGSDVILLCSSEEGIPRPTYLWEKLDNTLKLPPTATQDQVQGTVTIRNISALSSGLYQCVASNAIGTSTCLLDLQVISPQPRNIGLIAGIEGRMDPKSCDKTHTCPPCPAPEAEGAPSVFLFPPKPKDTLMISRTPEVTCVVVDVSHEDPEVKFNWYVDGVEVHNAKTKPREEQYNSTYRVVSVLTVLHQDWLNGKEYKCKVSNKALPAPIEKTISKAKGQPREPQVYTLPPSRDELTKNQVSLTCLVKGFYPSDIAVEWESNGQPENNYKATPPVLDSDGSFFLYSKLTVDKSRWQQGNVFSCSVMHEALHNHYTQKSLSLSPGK

[3] = molecular target: T1, VSIG3 His-fusion; test: SPR (Biacore), antibody captured on protein A/G/L, single-cycle kinetics
[4] = molecular target: T2, Recombinant human VSIG3 Fc Chimera; test: SPR (Biacore, single-cycle kinetics)
[5] = molecular target: T2, Recombinant human VSIG3 Fc Chimera; test: SPR (Biacore), VSIG3-Fc immobilized, antibody as analyte, single-cycle kinetics
[6] = molecular target: T2, Recombinant human VSIG3 Fc Chimera; test: SPR (Biacore, single-cycle kinetics)
[7] = molecular target: T2, Recombinant human VSIG3 Fc Chimera; test: SPR (Biacore, single-cycle kinetics)

Kd [1]: 25 nM
Kd [2]: 21 nM
B2: mouse anti-human VSIG3 monoclonal antibody from clone #774221 (antibody, V domains shown)
VH: DVQLQESGPGLVKPSQSLSLTCTVTGYSITSDYAWNWIRQFPGNKLEWMGYISYSGYAIYNPSLKSRISITRDTSKNHFFLQLNSVTTEDTATYYCARSGGSWFAYWGQGTLVTVSA
VL: DIQMTQSPASLSASVGETVTITCRASENINSYLAWYQQKQGKSPQLLVYNAKTLAEGVPSRFSGSGSGTQFSLKINSLQPEDFGSYYCQHHYGTPPTFGGGTKLEIKR

Kd [3]: 19 nM
Kd [4]: 9.2 nM
B3: mouse anti-human VSIG3 monoclonal antibody from clone #774213 (antibody, V domains shown)
VH: DVQLVESGGGLVQPGGSRKLSCAASGFTFSSFGMHWVRQAPEKGLEWVAYISSGSTTIYYADTVKGRFTISRDNPKNTLFLQMTSLRSEDTAMYYCTRGSYYRYDLYYAMDYWGQGTSVTVSS
VL: DIQMTQSPSSLSASLGGKVTITCKASQDIHKYVAWYQHKPGKGPRLLIHYTSTLQPGIPSRFSGSGSGSDYSFSISNLEPADIASYYCLQYDNLLFTFGGGTKLEIKR

Kd [6]: 2.2 nM
B5: mouse anti-human VSIG3 monoclonal antibody from clone #973401 (antibody, V domains shown)
VH: QVQLQQSAAELARPGASVKMSCKASGYTFATYTIHWVKQRPGQGLEWIGYINPSSGYTEYNQKFKDKTTLTADKSSSTAYMQLSSLTSEDSAVYYCARREVYGSGSMDYWGQGTSVTVSS
VL: QIVLTQSPALMSASPGEKVTMTCSASSSVSFMYWYHQKPRSSPKPWIYLTSNLASGVPARFSGSGSGTSYSLTISSMEAEDAATYYCQQWSSNPLTFGAGTKLELKR

Second part, the binder before the results:

B1: mouse anti-human VSIG3 monoclonal antibody from clone #774226 (antibody, V domains shown)
VH: B2 VH with T21I, A58T, I59T, H78Q, R98I
VL: B2 VL with T20N, A25T
Kd [1]: 42 nM
Kd [2]: 65 nM

B4: mouse anti-human VSIG3 monoclonal antibody from clone #973428 (antibody, V domains shown)
VH: EVQLVESGGDLVKPGGSLKLSCAASGFTFNSYGMSWVRQTPDKRLEWVAIISSGGSYTYYPDSVKGRFTISRDNAKNTLYLQMSSLKSEDTAMYYCARLSYYYGSSPYAMDYWGQGTSVTISS
VL: DIVLTQSPASLAVSLGQRATISCRASKSVSTSGYSYMHWYQQKPGQSPKLLIYLASNLESGVPARCSGSGSGTDFTLNIHPVEEEDAATYYCQHSRELPYTFGGGTKLEIKR
Kd [5]: 2.2 nM

B6: mouse anti-human VSIG3 monoclonal antibody from clone #973422 (antibody, V domains shown)
VH: EVKLVESGGGLVQPGGSLKLSCAASGFTFSSYSMSWVRQTPEKRLEWVAYISNGGGSTYYPDTVKGRFTISRDNAKNTLYLQMSSLKSEDTAMYYCARHGDGYYPWFAYWGQGTLVTVSA
VL: QIVLSQSPAILSASPGEKVTMTCRASSSVSYIHWYQQKPGSSPKPWIYATSNLASGVPARFSGSGSGTSYSLTISRVEAEDAATYYCQQWSSNPFTFASGTKLEIKR
Kd [7]: 1.5 nM

Source: patent publication US20190194322A1 (published 2019)
